Source: article PMC8496131, “Accessing Chemo- and Regioselective Benzylic and Aromatic Oxidations by Protein Engineering of an Unspecific Peroxygenase” (ACS Catalysis, 2021)

Substrate: O=[N+]([O-])c1ccc2c(c1)OCO2
Test: purified protein
Format: biochemical, Thermothelomyces thermophilus
Settings: H2O2 as saturating co-substrate, standard deviation <18%

B1: MthUPO (Thermothelomyces thermophilus ATCC 42464) (protein)
chain: AGFDTWSPPGPYDVRAPCPMLNTLANHGFLPHDGKDITREQTENALFEALHINKTLASFLFDFALTTNPKNTSTFSLNDLGNHNILEHDASLSRADAYFGNVLQFNQTVFDETKTYWEGDTIDLRMAAKARLGRIKTSQATNPTYSMSELGDAFTYGESAAYVVVLGDKESRTVKRSWVEWFFEHEQLPQHLGWKRPAASFEEEDLNSSMEEIEKYTKELEGSNSTSGSQKHRRRLPRRRAHFGF
notes: secreted from S. cerevisiae, purified; 245 AA plus C-terminal TwinStrep-GFP11 tag; heme-thiolate
Km (20 nM enzyme): 386 µM
kcat (20 nM enzyme): 7.1 s⁻¹
kcat/Km (20 nM enzyme): 19000 M⁻¹ s⁻¹

B2: MthUPO (Thermothelomyces thermophilus ATCC 42464; A177F/L76F/S175G) (protein)
chain: AGFDTWSPPGPYDVRAPCPMLNTLANHGFLPHDGKDITREQTENALFEALHINKTLASFFFDFALTTNPKNTSTFSLNDLGNHNILEHDASLSRADAYFGNVLQFNQTVFDETKTYWEGDTIDLRMAAKARLGRIKTSQATNPTYSMSELGDAFTYGEGAFYVVVLGDKESRTVKRSWVEWFFEHEQLPQHLGWKRPAASFEEEDLNSSMEEIEKYTKELEGSNSTSGSQKHRRRLPRRRAHFGF
notes: as for B1
Km (20 nM enzyme): 422 µM
kcat (20 nM enzyme): 132 s⁻¹
kcat/Km (20 nM enzyme): 310000 M⁻¹ s⁻¹

B3: MthUPO (Thermothelomyces thermophilus ATCC 42464; F75Q/L76F/S175G) (protein)
chain: AGFDTWSPPGPYDVRAPCPMLNTLANHGFLPHDGKDITREQTENALFEALHINKTLASQFFDFALTTNPKNTSTFSLNDLGNHNILEHDASLSRADAYFGNVLQFNQTVFDETKTYWEGDTIDLRMAAKARLGRIKTSQATNPTYSMSELGDAFTYGEGAAYVVVLGDKESRTVKRSWVEWFFEHEQLPQHLGWKRPAASFEEEDLNSSMEEIEKYTKELEGSNSTSGSQKHRRRLPRRRAHFGF
notes: as for B1
Km (20 nM enzyme): 303 µM
kcat (20 nM enzyme): 47 s⁻¹
kcat/Km (20 nM enzyme): 160000 M⁻¹ s⁻¹

B4: MthUPO (Thermothelomyces thermophilus ATCC 42464; F170A/F75Q/L76M/S175G) (protein)
chain: AGFDTWSPPGPYDVRAPCPMLNTLANHGFLPHDGKDITREQTENALFEALHINKTLASQMFDFALTTNPKNTSTFSLNDLGNHNILEHDASLSRADAYFGNVLQFNQTVFDETKTYWEGDTIDLRMAAKARLGRIKTSQATNPTYSMSELGDAATYGEGAAYVVVLGDKESRTVKRSWVEWFFEHEQLPQHLGWKRPAASFEEEDLNSSMEEIEKYTKELEGSNSTSGSQKHRRRLPRRRAHFGF
notes: as for B1
Km (20 nM enzyme): 290 µM
kcat (20 nM enzyme): 59.4 s⁻¹
kcat/Km (20 nM enzyme): 210000 M⁻¹ s⁻¹

B5: MthUPO (Thermothelomyces thermophilus ATCC 42464; L76F) (protein)
chain: AGFDTWSPPGPYDVRAPCPMLNTLANHGFLPHDGKDITREQTENALFEALHINKTLASFFFDFALTTNPKNTSTFSLNDLGNHNILEHDASLSRADAYFGNVLQFNQTVFDETKTYWEGDTIDLRMAAKARLGRIKTSQATNPTYSMSELGDAFTYGESAAYVVVLGDKESRTVKRSWVEWFFEHEQLPQHLGWKRPAASFEEEDLNSSMEEIEKYTKELEGSNSTSGSQKHRRRLPRRRAHFGF
notes: as for B1
Km (5 nM enzyme): 110 µM
kcat (5 nM enzyme): 2.9 s⁻¹
kcat/Km (5 nM enzyme): 27000 M⁻¹ s⁻¹
